Reference: article PMC6508567 (2018)

B1: β-amylase WT (enzyme)
chain: MEVNVKGNYVQVYVMLPLDAVSVNNRFEKGDELRAQLRKLVEAGVDGVMVDVWWGLVEGKGPKAYDWSAYKQLFELVQKAGLKLQAIMSFHQCGGNVGDAVNIPIPQWVRDVGTCDPDIFYTDGHGTRNIEYLTLGVDNQPLFHGRSAVQMYADYMTSFRENMKEFLDAGVIVDIEVGLGPAGEMRYPSYPQSHGWSFPGIGEFICYDKYLQADFKAAAAAVGHPEWEFPNDVGQYNDTPERTQFFRDNGTYLSEKGRFFLAWYSNNLIKHGDRILDEANKVFLGYKVQLAIKISGIHWWYKVPSHAAELTAGYYNLHDRDGYRTIARMLKRHRASINFTCAEMRDSEQSSQAMSAPEELVQQVLSAGWREGLNVACENALPRYDPTAYNTILRNARPHGINQSGPPEHKLFGFTYLRLSNQLVEGQNYANFKTFVDRMHANLPRDPYVDPMAPLPRSGPEISIEMILQAAQPKLQPFPFQEHTDLPVGPTGGMGGQAEGPTCGMGGQVKGPTGGMGGQAEDPTSGIGGELPATM
B2: serpin Z4 (natural protein)
chain: MATTLATDVRLSIAHQTRFALRLRSAISSNPERAAGNVAFSPLSLHVALSLITAGAAATRDQLVAILGDGGAGDAKELNALAEQVVQFVLANESSTGGPRIAFANGIFVDASLSLKPSFEELAVCQYKAKTQSVDFQHKTLEAVGQVNSWVEQVTTGLIKQILPPGSVDNTTKLILGNALYFKGAWDQKFDESNTKCDSFHLLDGSSIQTQFMSSTKKQYISSSDNLKVLKLPYAKGHDKRQFSMYILLPGAQDGLWSLAKRLSTEPEFIENHIPKQTVEVGRFQLPKFKISYQFEASSLLRALGLQLPFSEEADLSEMVDSSQGLEISHVFHKSFVEVNEEGTEAGAATVAMGVAMSMPLKVDLVDFVANHPFLFLIREDIAGVVVFVGHVTNPLISA

Columns and labels:
serpin Z4 = target: B2; assay: SPR; serpin Z4 immobilised
β-amylase WT [1] = target: B1; assay: SPR; β-amylase immobilised
β-amylase WT [2] = target: B1; assay: MST; β-amylase labelled, serpin Z4 titrated

koff (serpin Z4) [s⁻¹] | koff (β-amylase WT [1]) [s⁻¹] | Kd (β-amylase WT [2]) [nM] | Binder
0.00243 |  |  | B1
 | 0.00263 | 215 | B2
